Test results: patent US11021755B2, “Compositions and methods for identifying anti cancer, anti-metastatic and anti-stress agents” (THE REGENTS OF THE UNIVERSITY OF CALIFORNIA, priority 2015, dated 2021)
Peptide text beside a SMILES is read from it. * marks the point of attachment. Cbz = O=C(OCc1ccccc1)*

Legend:
[1] = test system: ITGB3 promoter in HCC827 cells; conditions: resuming erlotinib treatment after erlotinib holiday
[2] = test system: Slug protein and pY416 SFK in MCF10A cells; test: Immunoblots of MCF10A cells stimulated with TGF-b2 and treated with inhibitors or antibody; assay type: cell-based, human; conditions: for Slug protein levels: 10 mM MG132, 5 hr prior to lysis
Method: FIGS. 21F-G illustrate Immunoblots of MCF10A cells stimulated with TGF-b2 or vehicle control and probed for the indicated proteins. FIG. 21F: Cells were transfected with control (Ctrl) or b3 siRNA and additionally treated with vehicle or proteasome inhibitor (MG132) for 5 hr prior to lysis. FIG. 21G: Cells were treated with 100 nM Src inhibitor (dasatinib) for the indicated length of time prior to lysis. FIG. 21F and FIG. 21G: Data shown are representative of three independent experiments.
Indeed, Slug protein levels are highly regulated through degradation by the proteasome (Kim et al. 2012; Wu et al., 2012). […] Thus, it appears that TGF-β2-stimulated expression of a αvβ3 mediates SFK activation resulting in enhanced Slug protein stability.
(§1) For experiments with MCF10A and HMECs, TGF-b2 stimulations were performed with 5 ng/ml TGF-b2 (PeproTech) or 0.1% BSA/PBS (vehicle) for 48 hr prior to lysis. In some experiments, […] of the anti-αvβ3 function-blocking antibody LM609 (Millipore) was added to cells at the same time as TGF-b2 or vehicle addition. For the proteasome inhibitor experiments, 10 mM MG132 (Sigma-Aldrich) or DMSO (vehicle) was added to transfected MCF10A cells 5 hr prior to lysis. Treatment of MCF10A cells with the SFK inhibitor dasatinib (ChemieTek) or DMSO (vehicle) was performed with 100 nM dasatinib for the indicated times prior to harvesting lysates.

[3] = test system: β3 expression in MaSCs/basal cells; test: β3 expression in K14+SMA+ cells from virgin WT mammary cells stimulated with growth factors (immunofluorescence); assay type: cell-based, mouse; conditions: cells from virgin WT mice; relative to vehicle-treated cells; TGF-b2 5 ng/ml, TGF-b1 5 ng/ml, RANKL 50 ng/ml, 48 hr
Source text: (§2) To examine the ability of these factors to increase β3 expression, we stimulated cells from virgin WT mice and measured β3 expression in MaSCs/basal cells, defined by expression of K14 and SMA.
FIG. 20A illustrates representative immunofluorescent images of β3 expression in K14+SMA+ cells (arrows) from pooled virgin WT mammary cells stimulated with the indicated growth factors. Nuclei are stained blue in all panels. Scale bars, […]. Data shown are representative of three independent experiments.
(§3) Cells from digested mammary glands were seeded at 40,000 cells per well onto MEFs (for colony-formation assays) or 8-well chamber slides (Lab-Tek) coated with 2% Matrigel/DMEM. At the time of seeding, cells were suspended in complete DMEM supplemented with vehicle (0.1% BSA/PBS), RANKL (50 ng/ml), TGF-b1 (5 ng/ml), or TGF-b2 (5 ng/ml) (PeproTech). Cells were fixed with 2% paraformaldehyde/PBS after 48 hr (chamber slides) or 5 days (colonies) for immunofluorescent staining.

[4] = test system: MaSC/basal and luminal colonies from virgin mammary cells; test: Mammary colony formation on irradiated MEFs with growth factors; assay type: cell-based, mouse; conditions: for total colony number: virgin mammary cells on irradiated MEFs
Method: This effect was reduced in mammary cells from β3KO mice (FIG. 20H), similar to our results from pregnant b3KO mice (FIG. 19C).
For colony formation on irradiated MEFs, 100,000 MEFs were seeded into 6-well dishes for 48 hr prior to adding 40,000 cells from digested mammary glands and grown in complete Dulbecco's modified Eagle's medium (DMEM). Colonies formed over 5-6 days before fixing and staining with either 0.1% crystal violet/20% methanol/PBS or 2% paraformaldehyde/PBS for immunofluorescent staining and counting colonies. For Matrigel colonies, 5,000 fluorescence-activated cell sorting (FACS) mammary gland cells were suspended in […] growth factor-reduced Matrigel (BD PharMingen) and grown 14 days in serum-free mammary epithelial cell medium-basal medium (Cambrex) supplemented with B27 supplement, 20 ng/ml epidermal growth factor, 20 ng/ml […] fibroblast growth factor, […], 100 U/ml penicillin, and […] streptomycin. Total colonies per well were counted from each of the four replicates per experiment.
as §3

β3 promoter = β3 promoter luciferase reporter in MCF10A cells; assay type: cell-based, human; conditions: reporter with proximal 1,300 bp of the β3 promoter
Source text: FIG. 20E graphically illustrates a Histogram displaying the relative luciferase activity in MCF10A cells transfected with an empty vector (Ctrl) or a luciferase reporter plasmid containing the proximal region of the β3 promoter (β3 prom-Luc) and stimulated with vehicle or TGF-β2. n=3 independent experiments. p=0.043.

[5] = test system: β3 expression in human mammary epithelial cells (HMECs), MCF10As; test: Immunoblot for β3 in MCF10As and HMECs stimulated with TGF-b2; assay type: cell-based; conditions: HMECs including MCF10As; 5 ng/ml TGF-b2, 48 hr
Method: FIG. 20D illustrates an image of an Immunoblot for β3 and b-actin (loading control) in MCF10As and HMECs stimulated with TGF-b2 or vehicle control. Data shown are representative of three independent experiments.
as §1

[6] = test system: β3 mRNA in CD29hi MaSCs/basal cells and CD29lo luminal cells; test: qPCR of β3 mRNA in vehicle versus TGF-β2-stimulated CD29hi and CD29lo cells; assay type: cell-based, mouse
Source text: as §2
FIG. 20B and FIG. 20C graphically illustrate qPCR analysis comparing the relative levels of β3 mRNA in vehicle versus TGF-β2-stimulated CD29hi (FIG. 20B) and CD29lo (FIG. 20C) cells from WT virgin mice. n=2 independent experiments (pooled samples).
For FIG. 20B, FIG. 20C, and FIG. 20F: each sample was run in triplicate, and 18S rRNA (FIG. 20B and FIG. 20C) or b-actin (FIG. 20F) was used as loading controls.

[7] = test system: nuclear Slug in K14+SMA+ MaSCs/basal cells; test: Slug expression in K14+SMA+ mammary cells stimulated with TGF-β2; assay type: cell-based, mouse
Source text: Slug was recently characterized as a determinant of the MaSC fate in the virgin mammary gland (Guo et al., 2012) and is expressed during early to midpregnancy but is negatively regulated by Elf5 during late stage pregnancy/lactation, allowing for alveolar maturation (Chakrabarti et al., 2012). Therefore, we considered whether β3 was required for TGF-β2-mediated Slug expression in MaSCs/basal cells.
To determine the potential mechanism by which αvβ3 regulates Slug, we considered whether αvβ3 signaling may be required by assessing whether the b3DC mutant affects Slug expression. […] The β3DC mutant has previously been characterized as defective in recruiting and activating Src family kinases (SFKs) (Ablooglu et al., 2009; Arias-Salgado et al., 2003; Desgrosellier et al., 2009).
FIG. 21B graphically illustrates quantitation of the percentage of Slug+K14+SMA+ cells. p=0.0439 (vehicle versus TGF-b2 inWT cells) and p=0.0342 (WT versus b3KO cells stimulated with TGF-b2). For FIG. 21A and FIG. 21B: WT, n=3, b3KO, n=3.
FIG. 21E graphically illustrates quantitation of the percentage of Slug-expressing K14+SMA+ cells from virgin WT and b3DC mammary cells stimulated with vehicle or TGF-b2. WT, n=2, b3DC, n=2. p=0.029 (vehicle versus TGF-b2 in WT cells) and p=0.032 (WT versus b3DC cells stimulated with TGF-b2).
as §3

[8] = virgin WT mammary cells on irradiated MEFs, compared to vehicle

C#Cc1cccc(Nc2ncnc3cc(OCCOC)c(OCCOC)cc23)c1 [erlotinib]
expression of β3 and stem cell genes OCT4 and Nanog [1]: re-expression

CC(C)C[C@@H](C=O)NC(=O)[C@H](CC(C)C)NC(=O)[C@H](CC(C)C)NC(=O)OCc1ccccc1 [MG132] (Cbz-Leu-Leu-Leu-aldehyde)
Slug protein levels ([2]; b3 knockdown MCF10A cells): restore Slug protein levels to normal | Slug protein levels ([2]; control MCF10A cells): little effect

TGF-β1: transforming growth factor β (TGF-β) family member (PeproTech)
β3 expression in MaSCs/basal cells (K14 and SMA expressing) [3]: not | total colony number [4]: severe growth inhibitory effect

B1: TGF-β2: Transforming growth factor β2, growth factor released during pregnancy (PeproTech) (protein, UniProt P61812 303-414, looked up)
Transforming growth factor …: ALDAAYCFRNVQDNCCLRPLYIDFKRDLGWKWIHEPKGYNANFCAGACPYLWSSDTQHSRVLSLYNTINPEASASPCCVSQDLEPLTILYYIGKTPKIEQLSNMIVKSCKCS
β3 expression in MaSCs/basal cells (K14 and SMA expressing) [3]: stimulated β3 expression | β3 promoter activity (relative luciferase activity) (β3 promoter): directly activating the β3 promoter | expression of EMT markers such as Slug, E-cadherin, and Vimentin ([2]; MCF10A cells, TGF-β2 stimulation): drives changes | β3 expression (immunoblot) [5]: potent driver | β3 mRNA expression ([6]; CD29hi MaSCs/basal cells from WT virgin mice): drive β3 mRNA expression | β3 mRNA expression ([6]; CD29lo luminal cells from the same mice): little effect | frequency of bipotent, MaSC-like colonies [4, 8]: increased | luminal colonies [4, 8]: reciprocal decrease | total colony number [4]: did not affect | Slug expression in K14+SMA+ cells ([7]; cells from β3DC knockin mice): no increase | nuclear Slug expression in K14+SMA+ cells ([7]; virgin WT mammary cells, compared to vehicle control): induced nuclear Slug expression | Slug expression in K14+SMA+ cells ([7]; β3KO cells): failed to increase Slug

B2: RANKL: receptor activator of nuclear factor kB ligand (protein, UniProt O14788 140-317, looked up)
Tumor necrosis factor ligand …: IRAEKAMVDGSWLDLAKRSKLEAQPFAHLTINATDIPSGSHKVSLSSWYHDRGWAKISNMTFSNGKLIVNQDGFYYLYANICFRHHETSGDLATEYLQLMVYVTKTSIKIPSSHTLMKGGSTKYWSGNSEFHFYSINVGGFFKLRSGEEISIEVSNPSLLDPDQDATYFGAFKVRDID
β3 expression in MaSCs/basal cells (K14 and SMA expressing) [3]: not | total colony number [4]: potent driver of colony formation
